Results on one molecule are retold here after paper PMC5737361 (Nucleic Acids Research, 2017).

For the experiment, the target named is T1, Sulfolobus solfataricus PolB1, unlabelled (Sulfolobus solfataricus, UniProt P26811 1-882).
T1 sequence (looked up): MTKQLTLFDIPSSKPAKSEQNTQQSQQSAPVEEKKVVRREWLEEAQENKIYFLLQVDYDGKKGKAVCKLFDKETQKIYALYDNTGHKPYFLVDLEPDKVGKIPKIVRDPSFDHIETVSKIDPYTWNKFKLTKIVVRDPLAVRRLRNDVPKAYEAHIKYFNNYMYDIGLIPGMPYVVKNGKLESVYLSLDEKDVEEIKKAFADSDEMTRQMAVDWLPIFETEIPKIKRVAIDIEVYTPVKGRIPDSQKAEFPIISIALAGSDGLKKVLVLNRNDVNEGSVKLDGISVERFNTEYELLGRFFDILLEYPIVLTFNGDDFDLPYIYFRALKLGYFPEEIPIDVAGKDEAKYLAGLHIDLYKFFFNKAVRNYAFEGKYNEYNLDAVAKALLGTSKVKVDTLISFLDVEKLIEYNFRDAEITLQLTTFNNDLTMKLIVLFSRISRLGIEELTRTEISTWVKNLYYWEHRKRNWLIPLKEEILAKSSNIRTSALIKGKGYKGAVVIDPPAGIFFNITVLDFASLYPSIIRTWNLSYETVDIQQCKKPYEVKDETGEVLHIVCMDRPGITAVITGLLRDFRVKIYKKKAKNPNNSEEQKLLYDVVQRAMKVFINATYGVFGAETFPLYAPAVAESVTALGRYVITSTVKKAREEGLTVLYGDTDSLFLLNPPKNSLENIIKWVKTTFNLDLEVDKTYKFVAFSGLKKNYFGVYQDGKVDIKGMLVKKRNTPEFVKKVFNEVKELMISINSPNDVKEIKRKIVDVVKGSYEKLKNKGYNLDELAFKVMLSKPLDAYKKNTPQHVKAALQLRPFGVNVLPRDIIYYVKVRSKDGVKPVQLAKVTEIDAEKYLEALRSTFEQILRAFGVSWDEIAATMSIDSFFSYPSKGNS
Briefly: SEC. (Size exclusion chromatography separates by hydrodynamic size, large species first.)

B1: Sulfolobus solfataricus Dpo4 (PolY), wild type, unlabelled (enzyme)
chain: MIVLFVDFDYFYAQVEEVLNPSLKGKPVVVCVFSGRFEDSGAVATANYEARKFGVKAGIPIVEAKKILPNAVYLPMRKEVYQQVSSRIMNLLREYSEKIEIASIDEAYLDISDKVRDYREAYNLGLEIKNKILEKEKITVTVGISKNKVFAKIAADMAKPNGIKVIDDEEVKRLIRELDIADVPGIGNITAEKLKKLGINKLVDTLSIEFDKLKGMIGEAKAKYLISLARDEYNEPIRTRVRKSIGRIVTMKRNSRNLEEIKPYLFRAIEESYYKLDKRIPKAIHVVAVTEDLDIVSRGRTFPHGISKETAYSESVKLLQKILEEDERKIRRIGVRFSKFIEAIGLDKFFDT
With B1, the binding result was “binds”.
